Source: paper PMC5768788

Biological target: 14-3-3γ (UniProt P61981)
Experiment: co-immunoprecipitation and immunoblot
Conditions: reference: wild-type Flag-PP1α; sites S224,T226

PP1α (from UniProt P62136) S224A/T226A
binding against the reference: weaker
